Measured values: paper PMC8060872
pKd: −log10 of the molar value.

Legend:
Assay in all cases: AUC
[1] = target: C-terminally truncated SARS-CoV main protease Δ(201–306) (SARS-CoV)
[2] = target: C-terminally truncated SARS-CoV main protease Δ(293–306) (SARS-CoV)
[3] = target: N-terminally truncated SARS-CoV main protease Δ(1–4) (SARS-CoV)
[4] = target: N-terminally truncated SARS-CoV main protease Δ(1–5) (SARS-CoV)
[5] = target: N-terminally truncated SARS-CoV main protease Δ(1–6) (SARS-CoV)
[6] = target: N-terminally truncated SARS-CoV main protease Δ(1–7) (SARS-CoV)

C-terminally truncated SARS-CoV main protease Δ(201–306) (domain or fragment)
pKd [1]: 2.10

C-terminally truncated SARS-CoV main protease Δ(293–306) (domain or fragment)
pKd [2]: 3.79

N-terminally truncated SARS-CoV main protease Δ(1–4) (domain or fragment)
pKd [3]: 4.24

N-terminally truncated SARS-CoV main protease Δ(1–5) (domain or fragment)
pKd [4]: 4.45

N-terminally truncated SARS-CoV main protease Δ(1–6) (domain or fragment)
pKd [5]: 3.82

N-terminally truncated SARS-CoV main protease Δ(1–7) (domain or fragment)
pKd [6]: 3.45
